Reference: the RNAGym collection of RNA variant scans (doi:10.7554/elife.80360)

B1: Hammerhead Ribozyme (parent)
chain: ACCGGAUGUGCUUUCCGGUCUGAUGAGUCCGUGAGGACGAAACAG

Variants of: B1
Assay: self-cleavage, relative activity (ratio to wild type); higher = more cleavage; co-transcriptional

Variant	self-cleavage
C38G A42G	0.321
C11U G27U	0.487
C43A	0.375
C20G U28G	0.323
G10A U13C	1.39
C15U A44C	0.596
C11A G39C	0.438
G18U C38U	0.661
U32G C38U	0.559
U19G G31A	0.553
C15G G25A	0.348
G4A A23U	0.356
U32A A40G	0.312
G36C C43U	0.308
G36C C43A	0.35
G5C A44G	0.831
A23U C29A	0.352
G8C U28A	1.22
G5A A37C	0.542
G17C A42U	0.284
A40G A42C	0.266
A1C U7G	0.377
G31C G35U	0.698
C15G U19C	0.232

Variant	self-cleavage
U12A U28A	0.873
C11G G33A	1.11
U13C G17A	0.809
G10C U32A	1.09
U9A C38A	0.755
G17A C38U	0.586
A1C G22A	0.396
A37U G45U	0.48
G17A U32A	0.62
A1G U19A	0.511
A6C G8U	0.633
A6U C43U	0.368
C20G C43G	0.432
G33C A37C	0.745
U14C G22U	0.33
A1U U14C	0.531
C16U U24C	1.12
C15A G33A	0.921
C15G U24A	0.717
C15G U24G	0.574
G25U C29G	0.313
G4C A37C	0.328
G8C U13G	1.19
G18U U19C	0.487

Variant	self-cleavage
U9G C15U	0.842
C2U G22U	0.376
C15U A23G	0.271
C15U C29A	0.686
U21C C30U	0.891
C3G G35C	0.248
A1U A34G	0.596
C3U U24A	1.24
C30G G39C	0.334
U13C G27C	0.985
C3A A26G	0.253
U24A A40U	0.359
G10A A41U	0.386
G10U G35U	0.844
G8C U14A	1.08
A23C G35U	0.408
U24C G45A	0.465
U21C A41C	0.329
U14G G45A	0.708
U7C G27C	0.598
G5U A44C	0.515
G17U G35A	0.642
U13C U14C	0.862
U14C C43G	0.309

Variant	self-cleavage
G10C G35C	0.497
C11G C16A	0.865
G10C U28G	0.38
G10C U28A	0.381
A6U G31A	0.748
C2G G4U	0.219
G22U C30U	0.344
C3G A37G	0.334
U13G U21C	0.579
U13C A44U	0.923
U13C A44C	0.491
A40G C43U	0.268
G22U A26C	0.345
G4A U9A	0.458
G8A A26U	0.899
A44C G45C	1.14
A44C G45A	0.932
C29U G35A	0.636
G25C G35A	0.344
U14A A26U	0.65
U12G G33U	1.2
U9C A40G	0.374
A1G C30G	1.26
U13C C38A	0.601

Variant	self-cleavage
G25A C38U	0.317
G5U G33A	0.913
G22A G36C	0.309
A6C C29G	0.482
C2A U21G	0.291
C15G G22A	0.376
U13A C15G	0.895
C3G U28A	0.376
A6U G36A	0.44
G22U A37U	0.296
A6U G33C	0.551
A1C G33U	0.561
G5C G45C	0.397
G31U G45C	0.819
G27C C43A	0.291
C2A G31C	0.66
U14G C29G	0.737
G8A A42C	0.373
C15G G31A	1.01
U13C G22U	0.346
U13C G22C	0.247
U7G A37U	0.683
C38G A44C	0.508
U13A A44G	1.8

Variant	self-cleavage
U19G A42G	0.317
U19G A42C	0.424
U7C U19G	0.413
C20G A41C	0.329
U21C A23C	0.771
G25A G39A	0.335
U14A G45A	0.765
U14G	0.77
G22A G27U	0.28
G17U U28G	0.513
G5U C30A	0.795
A1G G18C	0.58
G25A A42G	0.242
U32G G35A	0.473
G35A A41C	0.32
G36U A44U	0.379
G8A	1.05
G8C	1.06
C16G G25C	0.285
C2G U7G	0.364
U14A U24C	1.2
C20G A44U	0.309
G8A G36C	0.508
U24C G25A	0.363

Variant	self-cleavage
C2G U13A	0.353
G31U A42G	0.28
G17U C29A	0.523
G8U C30G	0.942
U12G C38G	0.813
A6C U21G	0.415
G8A C43A	0.335
G17C A26C	0.355
U28A G31A	0.856
A23C U28G	0.398
G35U A41U	0.311
A40C A41U	0.441
U12A A23G	0.394
C16A G33U	1.4
C11A A42G	0.241
A6G U28G	0.461
U9C A23U	0.358
C3A U9C	0.756
U32A A41U	0.405
U32A G33U	0.859
G8C A23G	0.376
G35A A44C	0.42
C29A G35C	0.526
C2G U32G	0.379

Variant	self-cleavage
U7A U21A	0.359
G5A U28G	0.377
U24A U32G	0.644
G18A A23G	0.361
G33U A44U	0.87
G33U C43G	0.449
G27A C38A	0.871
U7C C15A	0.737
G22C C30G	0.351
G17C G39A	0.342
C3U G31A	1.06
U9C C15G	0.49
A1C G10C	0.397
G25U U28C	0.274
A1G C15G	0.996
A6G G25A	0.263
G31C A41C	0.306
C16A A42U	0.27
C2A U24A	0.929
U7C G39U	0.426
U32G A40G	0.342
C16U U28G	0.798
C3G C15U	0.231
G22U U28A	0.326

Variant	self-cleavage
U28A G36U	0.438
C16A G22U	0.329
A6G G39A	0.31
G5U G18C	0.33
U14G C16U	0.849
U13C C43A	0.35
G18C A40U	0.339
G18A G33A	0.873
U28G A40C	0.383
A6C U28C	0.604
G27U G35C	0.407
U13A A34U	1.46
G8U C43G	0.333
A34U A44U	0.437
C2A A34U	0.402
G4A A37C	0.491
C2A A26U	0.374
C20A G45A	0.396
G22A G33C	0.317
G22A G33U	0.3
U9A G25C	0.311
G5U U13C	1.15
A1C U19C	0.365
U9C C30U	0.709

Variant	self-cleavage
G8U U13A	1.1
A1U G25A	0.32
C16G A26C	0.305
U12C C29G	0.599
C43A A44G	0.304
A6G U9G	1.09
A1G C2A	0.881
A34C G45U	0.515
U7G C20G	0.386
A26G G31U	0.516
C38U A40C	0.598
U14C A26U	0.444
U13A U32A	1.31
G4U U14G	0.722
C16G C43U	0.285
G8A U9A	0.863
U28G A42U	0.311
G17A C30G	0.476
A26G G39A	0.368
G5C A26C	0.282
U9A A37G	1
G10A A26U	0.925
G4U U12G	0.564
G25A A41C	0.3

Variant	self-cleavage
U19G A44U	0.286
A6C G27A	0.56
A23U A34C	0.345
A23G C30U	0.485
C29A C43G	0.348
C2U U24C	1.35
U9C A42G	0.332
U13G A37G	0.868
C20A G22U	0.341
G17U G33C	0.851
U9G U32G	1.07
C16A A44G	1.35
U7G C16A	0.989
A6G U13A	0.842
G25U A44G	0.669
G4A U7A	0.538
U28C	1.08
U24G G35A	1.03
G5A G18U	0.371
U28G A41C	0.348
U28A G45U	0.496
G4A G39A	0.353
G10C C29U	1.44
G33C A41G	0.273

Variant	self-cleavage
U19G U24A	0.472
U13G A42C	0.276
G22U G27A	0.305
A23C A41U	0.361
A41U A44C	0.377
A6U C15A	0.741
C2U U12A	1.26
U14G C15U	0.581
C3U U32G	0.452
G33U A42G	0.312
A1U U12G	0.753
C20G A42C	0.307
C20A U24G	0.594
U32C A37C	0.803
U12A U13C	1.05
G4C G36U	0.281
U21G A40G	0.345
C3A A44U	0.392
C29U G36A	0.722
G5C U13C	0.681
C38A G45C	0.344
G4A A6G	0.355
G4C U9A	0.613
G5U G10C	0.708

Variant	self-cleavage
G18U A40G	0.357
A23G C29U	0.356
G35A G36C	0.484
G18A G27A	0.519
G18C A42C	0.328
U9C C43U	0.38
G17U A42C	0.394
G25C G45U	0.279
A1G A44C	0.858
U7C A42C	0.3
A37G C43U	0.33
U7A G35A	0.687
U19G A41C	0.327
U9G A34C	0.579
U13G C15A	0.701
U14C U28C	0.706
A23U A26G	0.304
G4C U12A	0.766
C2A G22A	0.364
C20G A26G	0.302
G18A A40G	0.351
G22C G36U	0.322
U14A U28C	0.923
U12A C30G	0.859

Variant	self-cleavage
C29U C30A	0.609
C3G C29U	0.418
G8U G27C	0.794
U13C A26G	0.313
U21G U28A	0.4
G17U G45C	0.513
U32C C43G	0.388
U7A G27A	0.66
U21G G45A	0.4
U7G G45A	0.559
G36C A42C	0.321
U9G A26U	0.344
C20G G36U	0.305
A40C G45C	0.399
G17A C43U	0.335
C2G C15A	0.302
U7A G10C	1.34
G5A G22A	0.322
G31C A34U	0.68
U13G G18U	0.701
G18A C43G	0.28
U7A A34G	1.07
